We go through 10 molecules from patent US20220031857A1 (OSSIANIX, published 2022).

Experiment in all cases: phage ELISA
Background: In an ELISA, binding on a coated surface is turned into a signal by an enzyme label.

Experiment [1] addresses T1, recombinant human TfR1 (transferrin receptor 1) (human, UniProt P02786 89-760).
T1 construct: Bought recombinant His-tagged protein; also called hTfR1

Another experiment concerns the target T2, recombinant mouse TfR2 (mouse, UniProt Q9JKX3 103-798, limits assumed).
T2 construct: Negative control protein
T2 sequence (looked up): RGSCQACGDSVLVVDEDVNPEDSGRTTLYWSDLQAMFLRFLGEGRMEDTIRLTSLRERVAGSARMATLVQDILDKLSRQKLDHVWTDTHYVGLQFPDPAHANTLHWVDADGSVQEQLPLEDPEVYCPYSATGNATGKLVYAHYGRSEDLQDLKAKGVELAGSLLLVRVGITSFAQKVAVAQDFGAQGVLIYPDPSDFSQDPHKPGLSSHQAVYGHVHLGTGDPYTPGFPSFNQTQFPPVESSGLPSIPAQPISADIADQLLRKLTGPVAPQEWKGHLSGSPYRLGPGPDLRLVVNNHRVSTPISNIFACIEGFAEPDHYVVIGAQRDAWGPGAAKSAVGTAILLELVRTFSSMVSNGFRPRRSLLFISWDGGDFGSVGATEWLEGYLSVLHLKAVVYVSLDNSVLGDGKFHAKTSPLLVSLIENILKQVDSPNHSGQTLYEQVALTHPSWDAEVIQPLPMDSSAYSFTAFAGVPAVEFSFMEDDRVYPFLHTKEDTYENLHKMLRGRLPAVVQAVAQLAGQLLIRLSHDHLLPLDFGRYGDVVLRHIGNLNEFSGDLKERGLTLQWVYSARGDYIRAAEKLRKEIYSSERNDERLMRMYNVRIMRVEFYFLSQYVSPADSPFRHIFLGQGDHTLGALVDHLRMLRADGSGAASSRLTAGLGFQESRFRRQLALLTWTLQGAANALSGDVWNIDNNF

Experiment [2] deals with T3, recombinant mouse TfR1 (transferrin receptor 1) (mouse, UniProt Q62351 89-763).
T3 construct: Bought recombinant His-tagged protein; also called mTfR1
T3 sequence (Q62351 89-763 limits assumed): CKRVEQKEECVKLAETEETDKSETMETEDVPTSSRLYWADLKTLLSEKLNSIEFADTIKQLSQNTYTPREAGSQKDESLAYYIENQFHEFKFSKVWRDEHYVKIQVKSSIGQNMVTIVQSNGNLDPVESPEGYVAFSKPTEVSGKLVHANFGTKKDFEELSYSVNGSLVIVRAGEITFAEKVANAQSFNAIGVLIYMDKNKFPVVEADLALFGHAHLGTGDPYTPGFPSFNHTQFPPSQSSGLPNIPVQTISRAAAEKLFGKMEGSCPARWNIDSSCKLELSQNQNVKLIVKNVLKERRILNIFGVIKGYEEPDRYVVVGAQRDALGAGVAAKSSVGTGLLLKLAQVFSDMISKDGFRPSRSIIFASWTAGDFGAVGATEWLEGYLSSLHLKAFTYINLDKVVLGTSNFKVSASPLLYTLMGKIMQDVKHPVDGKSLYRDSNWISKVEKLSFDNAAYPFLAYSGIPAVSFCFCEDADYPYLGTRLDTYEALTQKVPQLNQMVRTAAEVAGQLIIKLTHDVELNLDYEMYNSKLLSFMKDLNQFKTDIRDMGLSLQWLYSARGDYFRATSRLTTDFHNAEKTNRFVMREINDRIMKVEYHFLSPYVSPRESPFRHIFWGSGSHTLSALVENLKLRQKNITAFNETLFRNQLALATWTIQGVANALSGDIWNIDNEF

A further experiment has as its target T4, human serum albumin (human, UniProt P02768 25-609).
T4 construct: Negative control protein; also called HSA

T1 sequence (P02786 89-760 limits assumed): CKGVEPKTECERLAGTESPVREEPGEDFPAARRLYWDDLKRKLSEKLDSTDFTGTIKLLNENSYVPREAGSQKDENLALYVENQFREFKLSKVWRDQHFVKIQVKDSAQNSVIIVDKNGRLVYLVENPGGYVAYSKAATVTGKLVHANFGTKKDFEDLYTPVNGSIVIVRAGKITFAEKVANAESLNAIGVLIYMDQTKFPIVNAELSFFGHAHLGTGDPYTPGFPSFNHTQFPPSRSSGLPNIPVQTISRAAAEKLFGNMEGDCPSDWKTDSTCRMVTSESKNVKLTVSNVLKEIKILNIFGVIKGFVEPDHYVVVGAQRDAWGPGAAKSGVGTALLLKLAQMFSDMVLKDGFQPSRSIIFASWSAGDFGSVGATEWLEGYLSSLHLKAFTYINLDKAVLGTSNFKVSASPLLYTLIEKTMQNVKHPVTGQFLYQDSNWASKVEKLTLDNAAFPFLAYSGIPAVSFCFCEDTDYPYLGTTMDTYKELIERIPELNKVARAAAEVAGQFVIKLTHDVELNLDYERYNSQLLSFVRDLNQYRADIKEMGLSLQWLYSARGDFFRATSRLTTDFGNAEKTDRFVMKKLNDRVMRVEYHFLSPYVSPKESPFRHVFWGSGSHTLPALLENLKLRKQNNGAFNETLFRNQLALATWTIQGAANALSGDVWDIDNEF
T4 sequence (P02768 25-609 limits assumed): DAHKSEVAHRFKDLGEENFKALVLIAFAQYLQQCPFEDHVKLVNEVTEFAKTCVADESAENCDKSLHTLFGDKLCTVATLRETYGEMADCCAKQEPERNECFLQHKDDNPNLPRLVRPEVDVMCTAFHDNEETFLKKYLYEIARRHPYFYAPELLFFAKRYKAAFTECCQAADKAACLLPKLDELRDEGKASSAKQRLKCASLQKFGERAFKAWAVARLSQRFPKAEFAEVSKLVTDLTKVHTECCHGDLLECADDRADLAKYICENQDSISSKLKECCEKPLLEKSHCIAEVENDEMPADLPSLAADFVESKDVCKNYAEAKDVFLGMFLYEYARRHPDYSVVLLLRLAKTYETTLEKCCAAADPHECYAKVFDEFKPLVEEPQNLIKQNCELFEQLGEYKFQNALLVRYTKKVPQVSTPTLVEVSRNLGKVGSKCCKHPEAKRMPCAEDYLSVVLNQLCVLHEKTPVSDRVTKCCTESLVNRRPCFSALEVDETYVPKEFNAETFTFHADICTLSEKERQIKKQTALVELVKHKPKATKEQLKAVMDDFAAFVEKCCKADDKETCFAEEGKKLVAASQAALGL

B1: SEQ ID NO 33 (VNAR clone displayed on phage) (VNAR)
VNAR: ARVDQTPQTITKETGESLTINCVLRDSNCDLSRTYWYRKKQGSTNEESISKGGRYVETVNSGSKSFSLRINDLTVEDSGTYRCNVALYHFTGCSRVQDVYGGGTVVTVNA
notes: shark VNAR domain on M13 phage; coat-protein fusion not described
With B1, the figures for the binding result (in experiment [1]; in the experiment with recombinant mouse TfR2; in experiment [2]) were “binds”, “no binding” and “binds”, respectively.

B2: SEQ ID NO 40 (VNAR clone displayed on phage) (VNAR)
VNAR: ARVDQTPQTITKETGESLTINCVLRDSNCALSSTLWYRTKSGSRNEESISKGGRYVETVNSGSKSFSLRINDLTVEDSGTYRCNVQFSYNCNFWKDVYGGGTDVTVNA
notes: as for B1
As to B2, the values for the binding result (in experiment [1]; with recombinant mouse TfR2; in experiment [2]) were “binds”, “no binding” and “binds”, respectively.

B3: SEQ ID NO 41 (VNAR clone displayed on phage) (VNAR)
VNAR: ARVDQTPQTITKETGESLTINCVLRDSNCALSSTLWYRTKSGSRNEESISKGGRYVETVNSGSKSFSLKINDLTVEDSGTYRCKVCRQCCVATCDDLSLLCDVYGDGTAVTVNA
notes: as for B1
With B3, the binding result in experiment [1] is on record as “binds”; in the experiment with recombinant mouse TfR2 it was “no binding”; in experiment [2] it was “binds”.

B4: SEQ ID NO 34 (VNAR clone displayed on phage) (VNAR)
VNAR: ARVDQTPQTITKETGESLTINCVLRDSNCDLSRTYWYRKKSGSTNEESISKGGRYVETVNSGSKSFSLRINDLVVEDSGTYRCNVAVFTRCHNQQDVYGGGTAVTVNA
notes: as for B1
In the case of B4, the binding result in experiment [1] is reported as “binds”; in the experiment with recombinant mouse TfR2, “no binding”; in experiment [2], “binds”.

B5: SEQ ID NO 38 (VNAR clone displayed on phage) (VNAR)
VNAR: ARVDQTPQTITKETGESLTINCVLRDNNCALSSTLWYRTKSGSRNEESISKGGRYVETVNSGSKSFSLRINDLTVEDSGTYRCKVWQDSLSQPCESGCLDVYGGGTAVTVNA
notes: as for B1
Take B5: the binding result is “binds” in experiment [1], “no binding” with recombinant mouse TfR2 and “binds” in experiment [2].

B6: SEQ ID NO 35 (VNAR clone displayed on phage) (VNAR)
VNAR: ARVDQTPQTITKETGESLTINCVLRDSNCDLSRTYWYRKKSGSTNEESISKGGRYVETVNSGSKSFSLRINDLTVEDSGTYRCNVTWLDCHQCGASDVYGGGTVVTVNA
notes: as for B1
Turning to B6, the binding result in experiment [1] is listed as “binds”; in the experiment with recombinant mouse TfR2, “no binding”; in experiment [2] it was “binds”.

B7: SEQ ID NO 8 (VNAR clone displayed on phage) (VNAR)
VNAR: ARVDQTPQTITKETGESLTINCVLRDSNCELSSTYWYRKKSGSTNEARISKGGRYVETVNSGSKSFSLRINDLTVEDSGTYRCNVQYFLCHFVGDVYGDGTAVTVNA
notes: as for B1
For B7, the binding result was “binds” in experiment [1], “no binding” with human serum albumin and “binds” in experiment [2].

B8: SEQ ID NO 37 (VNAR clone displayed on phage) (VNAR)
VNAR: ARVDQTPQTITKETGESLTINCVLRDSNCALSSTLWYRTKSGSRNEESISKGGRYVETVNSGSKSFSLRINDLTVKDSGTYRCNVQQGVVATCTSKRCDVYGGGTAVTVNA
notes: as for B1
In the case of B8, the figures for the binding result (in experiment [1]; with recombinant mouse TfR2; in experiment [2]) were “binds”, “no binding” and “binds”, respectively.

B9: SEQ ID NO 36 (VNAR clone displayed on phage) (VNAR)
VNAR: ARVDQTPQTITKETGESLTINCVLRDSNCDLSRTYWYRKKSGSTNEESISKGGRYVETVNSGSKSFSLRINDLVVEDSGTYRCNVHSVSCIQRLDVYGGGTVVTVNA
notes: as for B1
In the case of B9, the binding result is given as “binds” in experiment [1], “no binding” with recombinant mouse TfR2 and “binds” in experiment [2].

B10: SEQ ID NO 32 (VNAR clone displayed on phage) (VNAR)
VNAR: ARVDQTPQTITKETGESLTINCVLRDSNCALSNLYWYRKKSGSRNEESISKGGRYVETVNSGSKSFSLKINDLTVEDSGTYRCKVFGMRTHCQWVIYRITDVYGGGTAVTVNA
notes: as for B1
As to B10, the binding result in experiment [1] is given as “binds”; in the experiment with recombinant mouse TfR2 it was “no binding”; in experiment [2], “binds”.
